Substrate in this data set: COCCOCn1ccc(NC(=O)c2cc(Oc3ccc(S(C)(=O)=O)cc3)cc(-c3ncccc3C)c2)n1
The experiment in a line: Activity of recombinant human pancreatic glucokinase assessed as glucose half-maximal activity.

B1: Hexokinase-4 (Homo sapiens), P35557 (protein)
chain: MLDDRARMEAAKKEKVEQILAEFQLQEEDLKKVMRRMQKEMDRGLRLETHEEASVKMLPTYVRSTPEGSEVGDFLSLDLGGTNFRVMLVKVGEGEEGQWSVKTKHQMYSIPEDAMTGTAEMLFDYISECISDFLDKHQMKHKKLPLGFTFSFPVRHEDIDKGILLNWTKGFKASGAEGNNVVGLLRDAIKRRGDFEMDVVAMVNDTVATMISCYYEDHQCEVGMIVGTGCNACYMEEMQNVELVEGDEGRMCVNTEWGAFGDSGELDEFLLEYDRLVDESSANPGQQLYEKLIGGKYMGELVRLVLLRLVDENLLFHGEASEQLRTRGAFETRFVSQVESDTGDRKQIYNILSTLGLRPSTTDCDIVRRACESVSTRAAHMCSAGLAGVINRMRESRSEDVMRITVGVDGSVYKLHPSFKERFHASVRRLTPSCEITFIESEEGSGRGAALVSAVACKKACMLGQ
With B1, the Vmax turned out to be 150%.

Source of the values: ChEMBL document CHEMBL3232870, “Discovery of 3-(4-methanesulfonylphenoxy)-N-[1-(2-methoxy-ethoxymethyl)-1H-pyrazol-3-yl]-5-(3-methylpyridin-2-yl)-benzamide as a novel glucokinase activator (GKA) for the treatment of type 2 diabetes mellitus” (Bioorg Med Chem, 2014).
